Laboratory results published in paper PMC2323369, “Identification of a GTP-bound Rho specific scFv molecular sensor by phage display selection” (BMC Biotechnology, 2008).

Assays:
GST-Rac1 [1] = target: T1, GST-Rac1 (Homo sapiens (assumed), UniProt P63000); experiment: ELISA; GST proteins loaded with 200 μM GTPγS for 30 min and purified on glutathione ELISA plates; 10^10 clones of C1 phages in each well; anti-M13-HRP, TMB; conditions: one partner purified
GST-Cdc42 [2] = target: T2, GST-Cdc42 (Homo sapiens (assumed), UniProt P60953); experiment: as above; conditions: one partner purified
T2 construct: Cdc42, from a pGEX plasmid provided by Dr. A. Blangy; Loaded with GDP, GTP or GTPγS as told in each assay; also called GTP-Cdc42; source: E. coli BL21, purified on glutathione-coated plates
T2 sequence (P60953 whole entry): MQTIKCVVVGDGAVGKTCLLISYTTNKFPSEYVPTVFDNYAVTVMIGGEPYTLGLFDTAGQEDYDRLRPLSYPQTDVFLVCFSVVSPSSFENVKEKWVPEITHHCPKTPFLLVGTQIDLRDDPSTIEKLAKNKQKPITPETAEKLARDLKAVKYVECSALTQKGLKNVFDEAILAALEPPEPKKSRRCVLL

GST-RhoB (wild type) [3] = target: T3, GST-RhoB (wild type) (Homo sapiens (assumed), UniProt P62745); experiment: as above; conditions: one partner purified
T3 construct: Loaded with GDP, GTP or GTPγS as told in each assay; The immunoprecipitation speaks only of recombinant RhoB without naming the GST; also called recombinant RhoB; source: E. coli BL21, purified on glutathione-coated plates; crude bacterial lysate (immunoprecipitation); not shown: GST, N-terminal, kept
T3 sequence (P62745 whole entry): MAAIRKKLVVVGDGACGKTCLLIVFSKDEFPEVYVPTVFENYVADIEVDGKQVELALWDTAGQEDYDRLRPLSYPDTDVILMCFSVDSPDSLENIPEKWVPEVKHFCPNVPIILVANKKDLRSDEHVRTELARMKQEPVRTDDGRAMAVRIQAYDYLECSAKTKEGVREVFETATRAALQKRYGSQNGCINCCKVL

GST-RhoC (wild type) = target: T4, GST-RhoC (wild type) (Homo sapiens (assumed), UniProt P08134); experiment: as above; conditions: one partner purified
T4 construct: Loaded with GDP or GTPγS as told in each assay; source: E. coli BL21, purified on glutathione-coated plates; not shown: GST, N-terminal, kept
T4 sequence (P08134 whole entry): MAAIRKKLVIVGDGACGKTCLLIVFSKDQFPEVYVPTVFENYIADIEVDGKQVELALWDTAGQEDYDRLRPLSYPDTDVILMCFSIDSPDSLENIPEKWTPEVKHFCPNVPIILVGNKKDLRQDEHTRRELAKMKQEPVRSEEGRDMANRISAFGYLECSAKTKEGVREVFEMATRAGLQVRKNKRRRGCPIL

GST-Rac1 [4] = target: T1, GST-Rac1; experiment: ELISA; competition ELISA on a RhoAQ63L coated plate: scFvC1-N1N2 (0.4 μM) competed by increasing concentrations of GST-RBD, GDP bound RhoA, GTP bound Cdc42, GTP bound Rac1
GST-Cdc42 [5] = target: T2, GST-Cdc42; experiment: as above
GST-RhoB (wild type) [6] = target: T3, GST-RhoB (wild type); experiment: pull-down; scFv C1-N1N2 from crude bacterial extract fixed on Ni-NTA beads; crude bacterial lysate with recombinant RhoA or RhoB loaded with 0.2 mM GTPγS (PBS, 10 mM EDTA, 30 min, 30°C); 45 min at 4°C; blot with anti-RhoA or anti-RhoB; called immunoprecipitation; conditions: one partner purified
GST-RhoAQ63L = target: T5, GST-RhoAQ63L (UniProt P61586 1-193, Q63L); experiment: ELISA + SPR; competition ELISA on a RhoAQ63L coated plate (scFvC1-N1N2 0.4 μM competed by increasing GST-RBD); KD of GST-RBD also determined by SPR on GST-RhoAQ63L
T5 construct: GTP-locked mutant; source: E. coli BL21, purified on glutathione-coated plates; not shown: GST, N-terminal, kept
T5 sequence (P61586 whole entry Q63L): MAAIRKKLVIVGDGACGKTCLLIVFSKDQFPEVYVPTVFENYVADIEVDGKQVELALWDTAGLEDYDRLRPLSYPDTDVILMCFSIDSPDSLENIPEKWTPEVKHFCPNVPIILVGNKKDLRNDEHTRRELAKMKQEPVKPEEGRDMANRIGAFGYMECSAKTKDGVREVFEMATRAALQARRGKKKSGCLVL

B1: C1 phage (scFv C1-pIII fusion protein displayed on phage) (scFv, V domains shown)
VH: not shown
VL: SSELTQDPAVSVALGQTVRITCQGDSLRSYYASWYQQKPGQAPVLVIYGKNNRPSGIPDRFSGSSSGNTASLTITGAQAEDEADYYCNSRDSSGNHAYVFGGGTKLTVL
notes: VH of scFv C1 (human synthetic, Griffin.1 library); linker between VH and VL of the Griffin.1 library vector pHEN2; VL of scFv C1 (human synthetic, Griffin.1 library); source: monoclonal phage from E. coli supernatant (Griffin.1 library, phagemid pHEN2); not shown: 6xHis, C-terminal, kept; myc, C-terminal, kept
binding result (GST-Rac1 [1]): no binding (tested: 10^10 clones of C1 phages) | binding result (GST-Cdc42 [2]): no binding (tested: 10^10 clones of C1 phages) | binding result (GST-RhoB (wild type) [3]): binds | binding result (GST-RhoC (wild type)): binds

B2: scFv C1-N1N2 (scFv, V domains shown)
VH: not shown
VL: B1 VL
notes: VH of scFv C1, as in m1; linker between VH and VL of the vector pHEN2, as in m1; VL of scFv C1, as in m1; N-terminal portions N1 and N2 of the phage coat protein pIII of M13 (vector pHEN2); the C-terminal portion of pIII removed; The amber codon between the tags and gene III was mutated so that translation runs into pIII; an EcoRI site was put in after N2; Predicted mass 60 kDa; Smaller proteins …
Kd (GST-Rac1 [4]): > 50 µM | binding result (GST-Rac1 [4]): no binding (tested: > 50 μM) | Kd (GST-Cdc42 [5]): > 50 µM | binding result (GST-Cdc42 [5]): no binding (tested: > 50 μM) | binding result (GST-RhoB (wild type) [6]): binds

B3: GST-RBD (Rho binding domain of Rhotekin fused to GST) (domain or fragment)
chain: ILEDLNMLYIRQMALSLEDTELQRKLDHEIRMRDGACKLLAACSQREQALEATKSLLVCNSRILSYMGELQRRKEAQVLEKTG
Kd (GST-RhoAQ63L): 0.2 ± 0.2 µM
